B1: 6-5D3-IgG1 (antibody, V domains shown)
VH: EVQLVESGGGLVQPGGSLRLSCAASGYAFNTSWMNWVRQAPGKGLEWISRIYPGDGDTNYNGKFKGKATISADKSKNTLYLQMNSLRAEDTAVYYCARGEWYLYYFDYWGQGTLVTVSS
VL: DIQMTQSPSSLSASVGDRVTITCSASQGINNFLTWYQQKPGKALKLLIYYTSSLHSGVPSRFSGSGSGTDYTLTISSLQPEDFATYYCQQYSNLPFTFGQGTKVEIK
modifications: N-glycosylation at VH N30
notes: also called h5D3; humanized 5D3
B2: h5D3 variant HVg3 (antibody, human IgG1, V domains shown)
VH: B1 VH with N30Q, D55E, D57E, G62A
VL: B1 VL
notes: Full-length human IgG1 kappa variant of h5D3 (antibody 6)
B3: h5D3 variant HVg2 (antibody, human IgG1, V domains shown)
VH: B1 VH with N30Q, G56A, G62A
VL: B1 VL
notes: as for B2
B4: h5D3 variant LVg2HVg2 (antibody, human IgG1, V domains shown)
VH: B1 VH with N30Q, G56A, G62A
VL: B1 VL with N30E
notes: as for B2
B5: h5D3 variant LVg2 (antibody, human IgG1, V domains shown)
VH: B1 VH
VL: B1 VL with N30E
notes: as for B2
B6: h5D3 variant LVg2HVg3 (antibody, human IgG1, V domains shown)
VH: B1 VH with N30Q, D55E, D57E, G62A
VL: B1 VL with N30E
notes: as for B2
B7: h5D3 variant LVg2HVg4 (antibody, human IgG1, V domains shown)
VH: B1 VH with N30Q, D55E, G62A
VL: B1 VL with N30E
notes: as for B2
B8: h5D3 variant LVg2HVg5 (antibody, human IgG1, V domains shown)
VH: B1 VH with N30Q, D55E, D57S, G62A
VL: B1 VL with N30E
notes: as for B2
B9: h5D3 variant LVg2HVg7 (antibody, human IgG1, V domains shown)
VH: B1 VH with N30Q
VL: B1 VL with N30E
notes: as for B2
B10: h5D3 variant HVg5 (antibody, human IgG1, V domains shown)
VH: B1 VH with N30Q, D55E, D57S, G62A
VL: B1 VL
notes: as for B2
B11: h5D3 variant HVg4 (antibody, human IgG1, V domains shown)
VH: B1 VH with N30Q, D55E, G62A
VL: B1 VL
notes: as for B2
B12: h5D3 variant HVg7 (antibody, human IgG1, V domains shown)
VH: B1 VH with N30Q
VL: B1 VL
notes: as for B2
B13: 6-5D3-hFab (Fab, V domains shown)
VH: B1 VH
VL: B1 VL
notes: Humanized Fab with a TwinStrep tag at the C-terminus of the CH1 constant domain; also called version 6 of 5D3-Fab; antibody 6 (Fab format)
B14: 5-5D3-hFab (Fab, V domains shown)
VH: QVQLVQSGPEVKKPGASVRLSCKASGYAFNTSWMNWVRQAPGQGLEWIGRIYPGDGDTNYNGKFKGKATMTADKSTNTAYMELRSLRSDDTAVYYCGRGEWYLYYFDYWGQGTLVTVSS
VL: B1 VL with L11V, T22S, P40L, K45Q, Q100P, E105D
notes: Humanized Fab with a TwinStrep tag at the C-terminus of the CH1 constant domain; also called version 5 of 5D3-Fab; antibody 5
B15: 2-5D3-hFab (Fab, V domains shown)
VH: B14 VH with P9A, R19K, L20V, W47Y, T76I, N77S, A79V, L83V, S85R, G97A
VL: B1 VL with Q38H, K39E, S77T, Q100G
notes: Humanized Fab with a TwinStrep tag at the C-terminus of the CH1 constant domain; also called version 2 of 5D3-Fab; antibody 2
B16: 2-5D3-IgG1 (antibody, V domains shown)
VH: B14 VH with P9A, R19K, L20V, W47Y, T76I, N77S, A79V, L83V, S85R, G97A
VL: B1 VL with Q38H, K39E, S77T, Q100G
notes: also called full-length humanized 5D3 version 2
B17: 5-5D3-IgG1 (antibody, V domains shown)
VH: B14 VH
VL: B1 VL with L11V, T22S, P40L, K45Q, Q100P, E105D
notes: also called full-length humanized 5D3 version 5

Residue numbers refer to the chain shown, from its start.

The record followed here is patent US20250282890A1 (TECHNISCHE UNIVERSIT T M NCHEN, published 2025).

T1 sequence (Q04609 44-750 limits assumed): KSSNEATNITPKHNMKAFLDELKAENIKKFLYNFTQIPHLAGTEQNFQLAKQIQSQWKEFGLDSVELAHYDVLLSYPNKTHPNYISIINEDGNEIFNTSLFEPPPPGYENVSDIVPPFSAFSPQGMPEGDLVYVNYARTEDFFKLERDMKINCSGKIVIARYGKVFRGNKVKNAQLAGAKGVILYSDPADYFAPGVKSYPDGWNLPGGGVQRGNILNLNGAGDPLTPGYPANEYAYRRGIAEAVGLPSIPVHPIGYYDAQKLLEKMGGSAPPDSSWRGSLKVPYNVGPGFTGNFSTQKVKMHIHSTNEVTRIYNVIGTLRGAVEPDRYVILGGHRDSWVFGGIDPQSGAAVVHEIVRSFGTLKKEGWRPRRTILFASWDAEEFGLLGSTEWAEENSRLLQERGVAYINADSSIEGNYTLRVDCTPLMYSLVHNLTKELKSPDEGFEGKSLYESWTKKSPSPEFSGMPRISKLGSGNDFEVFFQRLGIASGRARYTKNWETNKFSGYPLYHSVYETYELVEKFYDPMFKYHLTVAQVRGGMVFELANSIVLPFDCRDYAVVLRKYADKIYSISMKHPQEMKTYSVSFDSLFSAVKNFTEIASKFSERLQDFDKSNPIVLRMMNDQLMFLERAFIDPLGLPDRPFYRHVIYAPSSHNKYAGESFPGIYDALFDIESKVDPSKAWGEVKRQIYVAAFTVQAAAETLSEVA
T2 sequence (Q04609 whole entry): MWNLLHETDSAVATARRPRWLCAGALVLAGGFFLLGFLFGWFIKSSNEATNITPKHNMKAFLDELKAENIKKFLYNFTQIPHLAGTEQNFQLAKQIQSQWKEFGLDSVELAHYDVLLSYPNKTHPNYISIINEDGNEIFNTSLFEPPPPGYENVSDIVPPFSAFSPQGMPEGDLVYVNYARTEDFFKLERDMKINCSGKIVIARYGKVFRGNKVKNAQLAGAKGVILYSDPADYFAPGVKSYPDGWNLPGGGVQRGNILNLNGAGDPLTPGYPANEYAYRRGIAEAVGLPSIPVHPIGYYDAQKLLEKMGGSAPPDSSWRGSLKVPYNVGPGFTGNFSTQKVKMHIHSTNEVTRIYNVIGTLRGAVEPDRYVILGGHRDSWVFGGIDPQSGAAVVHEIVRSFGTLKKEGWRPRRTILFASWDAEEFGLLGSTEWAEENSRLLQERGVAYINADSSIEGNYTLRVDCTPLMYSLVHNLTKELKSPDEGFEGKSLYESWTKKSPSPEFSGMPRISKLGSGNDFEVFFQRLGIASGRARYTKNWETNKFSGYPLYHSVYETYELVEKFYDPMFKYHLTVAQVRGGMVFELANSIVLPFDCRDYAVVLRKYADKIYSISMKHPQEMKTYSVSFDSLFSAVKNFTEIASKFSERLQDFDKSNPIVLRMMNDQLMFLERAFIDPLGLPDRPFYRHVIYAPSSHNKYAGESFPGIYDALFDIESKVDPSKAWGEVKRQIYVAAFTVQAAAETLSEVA

One test has as its target T1, recombinant human PSMA (prostate-specific membrane antigen), biotin-tagged (human, UniProt Q04609 44-750, biotin tag (site not stated)).
T1 construct: also called biotin-tagged PSMA; biotin-labelled PSMA
Nature of the test: PSMA ELISA on plates coated with recombinant PSMA, two-fold dilution series, goat anti-human-HRP and TMB. For orientation: An ELISA detects its analyte on a solid surface through an enzyme-linked reagent.
Turning to B1, the “EC50 (read off the curve)” value is roughly 0.4 nM.
On the same count and under the same terms, to B2 belongs roughly 0.9 nM.
The same measure, in the same setting: to B3 belongs roughly 0.4 nM; to B4, roughly 0.5 nM.
Still for that read-out and setting: the result for B5 reads roughly 0.4 nM.
Take B6: the “EC50 (read off the curve)” value is roughly 3 nM.

The target of a further test is T1, recombinant human PSMA …. Described as above. The source holds these as a separate data set. Here is the method:
(§1) FIG. 16—Affinities of optimized full-length antibodies determined by ELISA. Plates coated with recombinant PSMA were probed with two-fold dilution series of individual antibodies and binding was visualized using goat anti-human secondary antibody conjugated to horseradish peroxidase together with the TMB substrate. Binding curves were fitted using a non-linear regression algorithm.
(§2) Also, the affinity of the optimized humanized 5D3 variants was determined by ELISA (FIG. 16, Table 4).
In the case of B1, the “EC50 (read off the curve)” value is roughly 0.5 nM.
On the same count and under the same terms, to B7 belongs roughly 0.5 nM; to B8, roughly 0.4 nM.
In the case of B9, the “EC50 (read off the curve)” value was roughly 0.4 nM.
On the same count and under the same terms, to B10 belongs roughly 0.2 nM; to B11, roughly 0.4 nM.
As for B12, the “EC50 (read off the curve)” value is roughly 0.4 nM.

Another test deals with T1, recombinant human PSMA …. Nature of the test: ELISA on plates coated with recombinant PSMA (biotin-tagged, captured on streptavidin), two-fold dilution series, goat anti-human-HRP and TMB. The procedure:
FIG. 4—Affinity of Fab variants determined by ELISA. Plates coated with recombinant PSMA were probed with two-fold dilution series of individual fragments and binding visualized using goat anti-human secondary antibody conjugated to horseradish peroxidase together with the TMB substrate. Binding curves were fitted using a non-linear regression algorithm.
(§3) Native ELISA was used to measure affinity of 5D3-hFabs for human PSMA. Experiments were performed in 96-well MaxiSorp plates coated with streptavidin complexed with biotin-tagged PSMA. Purified 5D3-hFabs were applied in 2-fold dilution series in the concentration range of 2000 nM-0.95 pM and goat anti-human secondary antibody conjugated to horseradish peroxidase, together with the TMB substrate, was used for 5D3-hFabs detection. Data were processed using a Prism 6 software (GraphPad, San Diego, CA) and binding curves fitted using an embedded non-linear curve-fitting algorithm (FIG. 4, Table 1). Affinity of all variants tested was in a single-digit nanomolar range (1.8-2.7 nM) and virtually identical to the parent murine and chimeric Fabs, documenting successful humanization results.
Take B13: the “EC50 (read off the curve)” value is roughly 4 nM.
On the same count and under the same terms, to B14 belongs roughly 4 nM; to B15, roughly 2 nM.

The next test addresses T2, human PSMA displayed on the surface of LNCaP cells (human, UniProt Q04609 1-750).
T2 construct: Endogenous PSMA on living LNCaP cells; also called PSMA-positive LNCaP cells
As to the kind of experiment: flow cytometry titration on cells (three-fold dilution series, anti-Strep antibody and goat anti-mouse Alexa Fluor 647); the sheet does not name the cell line, the text gives the curves as binding to cell-surface PSMA (LNCaP). Here is the method:
FIG. 5—Affinity of Fab variants determined by flow cytometry. LNCaP (PSMA-positive) and DU145 (PSMA-negative) cell lines were probed with three-fold dilution series of tested Fab variants and bound antibodies visualized by the combination of anti-Strep and goat anti-mouse Alexa-Fluor647 antibodies. Cell samples were analyzed using a LSRFortessa flow cytometer and binding curves were fitted using a non-linear regression algorithm.
(§4) Flow cytometry was used to analyze affinity and specificity of 5D3-hFabs for PSMA in its physiological environment, i.e., at the surface of living cells. To this end, LNCaP and DU145 cells were used as representatives of PSMA-positive and PSMA-negative cell lines, respectively, in a protocol described previously (Novakova, Belousova et al. (2020), Int. J. Mol. Sci., 21(18):6672). Briefly, cells were treated by three-fold dilution series of 5D3-hFabs in the concentration range 6000 nM-0.42 pM. Bound 5D3-hFabs were detected by the combination of anti-Strep tag antibody and goat anti-mouse secondary antibody conjugated to Alexa Fluor 647. Cell samples were immediately analyzed using a LSRFortessa flow cytometer.
A general note: Flow cytometry measures light scatter and fluorescence of single cells or particles in a stream.
As to B13, the “EC50 (read off the curve)” value was roughly 3 nM.
Still for that read-out and setting: to B14 belongs roughly 4 nM; to B15, roughly 3 nM.

In a further test the target is T1, recombinant human PSMA …. As to the kind of experiment: native ELISA, streptavidin-captured biotin-tagged PSMA, Fab titrated. Here is the method:
as §3
B13: the Kd is 1.8 nM.
On the same count and under the same terms, the result for B14 reads 1.8 nM; that for B15, 2.7 nM.

The target in another test is T1, recombinant human PSMA …. Nature of the test: native ELISA, streptavidin-captured biotin-tagged PSMA, IgG1 titrated. The procedure: as §3
Native ELISA was used to measure affinity of humanized 5D3-IgG1s for human PSMA in an experimental setup described above and binding curves together with corresponding KD values shown in FIG. 10 and Table 2, respectively. Affinity of all variants tested was in a picomolar range (260-380 pM) and virtually identical to the parent murine and chimeric full-length IgG1s, documenting successful outcome of the humanization process.
B1: the Kd turned out to be 0.38 nM.
On the same count and under the same terms, to B16 belongs 0.26 nM; to B17, 0.39 nM.

A further test addresses T1, recombinant human PSMA …. As to the kind of experiment: ELISA on plates coated with recombinant PSMA, two-fold dilution series, goat anti-human-HRP and TMB.
Regarding B1, the “EC50 (read off the curve)” value is roughly 0.4 nM.
Same read-out and setting: to B16 belongs roughly 0.3 nM; to B17, roughly 0.4 nM.

In another test the target is T2, human PSMA displayed on the surface of …. As to the kind of experiment: flow cytometry on LNCaP cells, IgG1 titrated. The procedure: as §4
Flow cytometry was used to analyze affinity and specificity of humanized 5D3-IgG1s for PSMA in its physiological environment as described above and data are shown in FIG. 11 and Table 2.
Turning to B1, the Kd was found to be 0.56 nM.
Same read-out and setting: to B16 belongs 0.64 nM; to B17, 0.77 nM.

The next test shares this target. As to the kind of experiment: flow cytometry on LNCaP cells, Fab titrated. The procedure:
as §4
As to B13, the Kd was determined as 2.8 nM.
Still for that read-out and setting: to B14 belongs 4.1 nM; to B15, 3 nM.

The target in another test is T1, recombinant human PSMA …. As to the kind of experiment: ELISA on plates coated with recombinant PSMA, column head 'ELISA (nM)'. Here is the method: as §1, §2
Take B1: the dissociation constant Kd stood at 0.25 nM.
As for B2, the Kd is 0.93 nM.
Same read-out and setting: to B3 belongs 0.34 nM; to B7, 0.5 nM; to B8, 0.2 nM.
Take B9: the Kd came to 0.37 nM.
On the same count and under the same terms, to B10 belongs 0.06 nM; to B4, 0.47 nM; to B5, 0.29 nM.
Same read-out and setting: the result for B11 reads 0.36 nM.
The same measure, in the same setting: the result for B6 reads 2.69 nM; that for B12, 0.35 nM.

As a reminder, the EC50 (read off the curve) is the concentration that produces a half-maximal response. The term Kd denotes the free concentration of one partner at which half of the binding sites on the other are occupied at equilibrium, for simple one-to-one binding.
